Reference: the Human Domainome abundance scans (Beltran et al. 2025)

B1: POU domain, class 3, transcription factor 2, residues 356 to 411; numbered along this chain, P20265 (parent)
chain: KKRTSIEVSVKGALESHFLKCPKPSAQEITSLADSLQLEKEVVRVWFCNRRQKEKR
B2: GA-binding protein alpha chain, residues 172 to 250; numbered along this chain, Q06546 (parent)
chain: GYRKEQERLGIPYDPIQWSTDQVLHWVVWVMKEFSMTDIDLTTLNISGRELCSLNQEDFFQRVPRGEILWSHLELLRKY

Variants of: B1
Experiment: abundance fitness (aPCA) (normalised: wild type 0, dead -1); higher = more abundant; growth selection in yeast, the domain comes from the species named
Settings: Homo sapiens

Abundance fitness, by site and new letter:
C48: Y 0.096; W -0.007; T -0.105; R -0.217; V -0.015
E54: M -0.407; Q -0.177; K -0.495; R -0.472; D -0.185; Y -0.337; H -0.417; C -0.284; A -0.255; F -0.764; T -0.518; G -0.454; N -0.407; P -0.861; L -0.313; W -0.581; I -0.665; S -0.538; V -0.466
N49: W -0.18; M -0.197; Y -0.396; H -0.08; E 0.066; I -0.249; F -0.515; K -0.056; R -0.135; C -0.14; L -0.149; S -0.137; Q -0.005; D 0.221; A -0.239; G -0.25; T -0.207; V -0.103
R50: Q -0.161; G -0.735; N -0.907; S -0.659; D -0.849; V -1; A -0.35; M -0.545; H -0.583; F -1.05; C -0.868; P -0.982; E -0.398; W -0.924
R51: I -0.397; H -0.098; E -0.154; W -0.1; S -0.323; P -0.831; C -0.442; N -0.402; D -0.381; L 0.061; V -0.245; F -0.354; M -0.156; A -0.136; T -0.447; G -0.198
Q52: T 0.039; F -0.106; A 0.039; I -0.145; R -0.104; M -0.053; H -0.002; V -0.131; D 0.015; L -0.125; K -0.001; E 0.222; S -0.135; G -0.076; W -0.241; P -0.956; N -0.007
K55: Y -0.019; Q -0.244; S 0.024; M -0.056; G -0.029; P -0.396; W -0.187; H -0.274; T -0.029; V -0.116; R -0.211; A 0.139; D 0.036; I -0.036; N -0.046; L -0.087; F -0.167; C -0.33; E 0.093
K53: V -0.517; D -0.234; H -0.204; C 0.025; T 0.024; G -0.112; A -0.602; Y -0.545; M 0.11; L -0.18; R -0.457
R56: L 0.131; V -0.033; A -0.335; Q -0.119; G 0.042; P -0.58; D 0.12; W -0.234; T 0.063; N 0.008; E -0.031; S -0.194; M 0.157; I -0.508; C 0.045; Y -0.413

Variants of: B2
Experiment: as above
Settings: Homo sapiens

Abundance fitness of substitutions, site by site:
G1: T -0.156; L -0.634; A -0.1; R 0.091; S -0.135; E -0.164; Q -0.047; M 0.045
R3: N -0.373; Q -0.05; G -0.176; C -0.206; M -0.158; L -0.182; A -0.268; V -0.262; Y -0.19; W -0.081; D -0.499; F -0.058; K -0.083; E -0.004; H -0.098; P -0.517; S -0.214
Y13: A -0.085; C -0.138; V -0.109; Q -0.048; L -0.014; M 0.012; T -0.152
